Reference: patent US7067646 (Dana-Farber, dated 2006)
One block for each binder: values may come before it.

Legend:
[1] = biological target: T1, MTAF600 (microtubule associated factor 600) (human, UniProt Q5T4S7 1-5183); assay: anti-FLAG immunoprecipitation of f:RB from HeLa nuclear extract, SDS-PAGE
T1 construct: Native endogenous protein of HeLa nuclear extracts (5183 residues); also called MT-associated factor (MTAF) 600; 600 kDa subunit

[2] = biological target: T1, MTAF600 (microtubule associated factor …); assay: immunoprecipitation with RB antibody from HeLa extract, anti-MTAF600 immunoblot
[3] = biological target: T1, MTAF600 (microtubule associated factor …); assay: immunoprecipitation with p107 antibody from HeLa extract, anti-MTAF600 immunoblot
[4] = biological target: T1, MTAF600 (microtubule associated factor …); assay: MTAF600 immobilised on matrix incubated with GST-RB, immunoblot

T1 sequence (Q5T4S7 other isoform, or with tags, fused parts or gaps limits assumed): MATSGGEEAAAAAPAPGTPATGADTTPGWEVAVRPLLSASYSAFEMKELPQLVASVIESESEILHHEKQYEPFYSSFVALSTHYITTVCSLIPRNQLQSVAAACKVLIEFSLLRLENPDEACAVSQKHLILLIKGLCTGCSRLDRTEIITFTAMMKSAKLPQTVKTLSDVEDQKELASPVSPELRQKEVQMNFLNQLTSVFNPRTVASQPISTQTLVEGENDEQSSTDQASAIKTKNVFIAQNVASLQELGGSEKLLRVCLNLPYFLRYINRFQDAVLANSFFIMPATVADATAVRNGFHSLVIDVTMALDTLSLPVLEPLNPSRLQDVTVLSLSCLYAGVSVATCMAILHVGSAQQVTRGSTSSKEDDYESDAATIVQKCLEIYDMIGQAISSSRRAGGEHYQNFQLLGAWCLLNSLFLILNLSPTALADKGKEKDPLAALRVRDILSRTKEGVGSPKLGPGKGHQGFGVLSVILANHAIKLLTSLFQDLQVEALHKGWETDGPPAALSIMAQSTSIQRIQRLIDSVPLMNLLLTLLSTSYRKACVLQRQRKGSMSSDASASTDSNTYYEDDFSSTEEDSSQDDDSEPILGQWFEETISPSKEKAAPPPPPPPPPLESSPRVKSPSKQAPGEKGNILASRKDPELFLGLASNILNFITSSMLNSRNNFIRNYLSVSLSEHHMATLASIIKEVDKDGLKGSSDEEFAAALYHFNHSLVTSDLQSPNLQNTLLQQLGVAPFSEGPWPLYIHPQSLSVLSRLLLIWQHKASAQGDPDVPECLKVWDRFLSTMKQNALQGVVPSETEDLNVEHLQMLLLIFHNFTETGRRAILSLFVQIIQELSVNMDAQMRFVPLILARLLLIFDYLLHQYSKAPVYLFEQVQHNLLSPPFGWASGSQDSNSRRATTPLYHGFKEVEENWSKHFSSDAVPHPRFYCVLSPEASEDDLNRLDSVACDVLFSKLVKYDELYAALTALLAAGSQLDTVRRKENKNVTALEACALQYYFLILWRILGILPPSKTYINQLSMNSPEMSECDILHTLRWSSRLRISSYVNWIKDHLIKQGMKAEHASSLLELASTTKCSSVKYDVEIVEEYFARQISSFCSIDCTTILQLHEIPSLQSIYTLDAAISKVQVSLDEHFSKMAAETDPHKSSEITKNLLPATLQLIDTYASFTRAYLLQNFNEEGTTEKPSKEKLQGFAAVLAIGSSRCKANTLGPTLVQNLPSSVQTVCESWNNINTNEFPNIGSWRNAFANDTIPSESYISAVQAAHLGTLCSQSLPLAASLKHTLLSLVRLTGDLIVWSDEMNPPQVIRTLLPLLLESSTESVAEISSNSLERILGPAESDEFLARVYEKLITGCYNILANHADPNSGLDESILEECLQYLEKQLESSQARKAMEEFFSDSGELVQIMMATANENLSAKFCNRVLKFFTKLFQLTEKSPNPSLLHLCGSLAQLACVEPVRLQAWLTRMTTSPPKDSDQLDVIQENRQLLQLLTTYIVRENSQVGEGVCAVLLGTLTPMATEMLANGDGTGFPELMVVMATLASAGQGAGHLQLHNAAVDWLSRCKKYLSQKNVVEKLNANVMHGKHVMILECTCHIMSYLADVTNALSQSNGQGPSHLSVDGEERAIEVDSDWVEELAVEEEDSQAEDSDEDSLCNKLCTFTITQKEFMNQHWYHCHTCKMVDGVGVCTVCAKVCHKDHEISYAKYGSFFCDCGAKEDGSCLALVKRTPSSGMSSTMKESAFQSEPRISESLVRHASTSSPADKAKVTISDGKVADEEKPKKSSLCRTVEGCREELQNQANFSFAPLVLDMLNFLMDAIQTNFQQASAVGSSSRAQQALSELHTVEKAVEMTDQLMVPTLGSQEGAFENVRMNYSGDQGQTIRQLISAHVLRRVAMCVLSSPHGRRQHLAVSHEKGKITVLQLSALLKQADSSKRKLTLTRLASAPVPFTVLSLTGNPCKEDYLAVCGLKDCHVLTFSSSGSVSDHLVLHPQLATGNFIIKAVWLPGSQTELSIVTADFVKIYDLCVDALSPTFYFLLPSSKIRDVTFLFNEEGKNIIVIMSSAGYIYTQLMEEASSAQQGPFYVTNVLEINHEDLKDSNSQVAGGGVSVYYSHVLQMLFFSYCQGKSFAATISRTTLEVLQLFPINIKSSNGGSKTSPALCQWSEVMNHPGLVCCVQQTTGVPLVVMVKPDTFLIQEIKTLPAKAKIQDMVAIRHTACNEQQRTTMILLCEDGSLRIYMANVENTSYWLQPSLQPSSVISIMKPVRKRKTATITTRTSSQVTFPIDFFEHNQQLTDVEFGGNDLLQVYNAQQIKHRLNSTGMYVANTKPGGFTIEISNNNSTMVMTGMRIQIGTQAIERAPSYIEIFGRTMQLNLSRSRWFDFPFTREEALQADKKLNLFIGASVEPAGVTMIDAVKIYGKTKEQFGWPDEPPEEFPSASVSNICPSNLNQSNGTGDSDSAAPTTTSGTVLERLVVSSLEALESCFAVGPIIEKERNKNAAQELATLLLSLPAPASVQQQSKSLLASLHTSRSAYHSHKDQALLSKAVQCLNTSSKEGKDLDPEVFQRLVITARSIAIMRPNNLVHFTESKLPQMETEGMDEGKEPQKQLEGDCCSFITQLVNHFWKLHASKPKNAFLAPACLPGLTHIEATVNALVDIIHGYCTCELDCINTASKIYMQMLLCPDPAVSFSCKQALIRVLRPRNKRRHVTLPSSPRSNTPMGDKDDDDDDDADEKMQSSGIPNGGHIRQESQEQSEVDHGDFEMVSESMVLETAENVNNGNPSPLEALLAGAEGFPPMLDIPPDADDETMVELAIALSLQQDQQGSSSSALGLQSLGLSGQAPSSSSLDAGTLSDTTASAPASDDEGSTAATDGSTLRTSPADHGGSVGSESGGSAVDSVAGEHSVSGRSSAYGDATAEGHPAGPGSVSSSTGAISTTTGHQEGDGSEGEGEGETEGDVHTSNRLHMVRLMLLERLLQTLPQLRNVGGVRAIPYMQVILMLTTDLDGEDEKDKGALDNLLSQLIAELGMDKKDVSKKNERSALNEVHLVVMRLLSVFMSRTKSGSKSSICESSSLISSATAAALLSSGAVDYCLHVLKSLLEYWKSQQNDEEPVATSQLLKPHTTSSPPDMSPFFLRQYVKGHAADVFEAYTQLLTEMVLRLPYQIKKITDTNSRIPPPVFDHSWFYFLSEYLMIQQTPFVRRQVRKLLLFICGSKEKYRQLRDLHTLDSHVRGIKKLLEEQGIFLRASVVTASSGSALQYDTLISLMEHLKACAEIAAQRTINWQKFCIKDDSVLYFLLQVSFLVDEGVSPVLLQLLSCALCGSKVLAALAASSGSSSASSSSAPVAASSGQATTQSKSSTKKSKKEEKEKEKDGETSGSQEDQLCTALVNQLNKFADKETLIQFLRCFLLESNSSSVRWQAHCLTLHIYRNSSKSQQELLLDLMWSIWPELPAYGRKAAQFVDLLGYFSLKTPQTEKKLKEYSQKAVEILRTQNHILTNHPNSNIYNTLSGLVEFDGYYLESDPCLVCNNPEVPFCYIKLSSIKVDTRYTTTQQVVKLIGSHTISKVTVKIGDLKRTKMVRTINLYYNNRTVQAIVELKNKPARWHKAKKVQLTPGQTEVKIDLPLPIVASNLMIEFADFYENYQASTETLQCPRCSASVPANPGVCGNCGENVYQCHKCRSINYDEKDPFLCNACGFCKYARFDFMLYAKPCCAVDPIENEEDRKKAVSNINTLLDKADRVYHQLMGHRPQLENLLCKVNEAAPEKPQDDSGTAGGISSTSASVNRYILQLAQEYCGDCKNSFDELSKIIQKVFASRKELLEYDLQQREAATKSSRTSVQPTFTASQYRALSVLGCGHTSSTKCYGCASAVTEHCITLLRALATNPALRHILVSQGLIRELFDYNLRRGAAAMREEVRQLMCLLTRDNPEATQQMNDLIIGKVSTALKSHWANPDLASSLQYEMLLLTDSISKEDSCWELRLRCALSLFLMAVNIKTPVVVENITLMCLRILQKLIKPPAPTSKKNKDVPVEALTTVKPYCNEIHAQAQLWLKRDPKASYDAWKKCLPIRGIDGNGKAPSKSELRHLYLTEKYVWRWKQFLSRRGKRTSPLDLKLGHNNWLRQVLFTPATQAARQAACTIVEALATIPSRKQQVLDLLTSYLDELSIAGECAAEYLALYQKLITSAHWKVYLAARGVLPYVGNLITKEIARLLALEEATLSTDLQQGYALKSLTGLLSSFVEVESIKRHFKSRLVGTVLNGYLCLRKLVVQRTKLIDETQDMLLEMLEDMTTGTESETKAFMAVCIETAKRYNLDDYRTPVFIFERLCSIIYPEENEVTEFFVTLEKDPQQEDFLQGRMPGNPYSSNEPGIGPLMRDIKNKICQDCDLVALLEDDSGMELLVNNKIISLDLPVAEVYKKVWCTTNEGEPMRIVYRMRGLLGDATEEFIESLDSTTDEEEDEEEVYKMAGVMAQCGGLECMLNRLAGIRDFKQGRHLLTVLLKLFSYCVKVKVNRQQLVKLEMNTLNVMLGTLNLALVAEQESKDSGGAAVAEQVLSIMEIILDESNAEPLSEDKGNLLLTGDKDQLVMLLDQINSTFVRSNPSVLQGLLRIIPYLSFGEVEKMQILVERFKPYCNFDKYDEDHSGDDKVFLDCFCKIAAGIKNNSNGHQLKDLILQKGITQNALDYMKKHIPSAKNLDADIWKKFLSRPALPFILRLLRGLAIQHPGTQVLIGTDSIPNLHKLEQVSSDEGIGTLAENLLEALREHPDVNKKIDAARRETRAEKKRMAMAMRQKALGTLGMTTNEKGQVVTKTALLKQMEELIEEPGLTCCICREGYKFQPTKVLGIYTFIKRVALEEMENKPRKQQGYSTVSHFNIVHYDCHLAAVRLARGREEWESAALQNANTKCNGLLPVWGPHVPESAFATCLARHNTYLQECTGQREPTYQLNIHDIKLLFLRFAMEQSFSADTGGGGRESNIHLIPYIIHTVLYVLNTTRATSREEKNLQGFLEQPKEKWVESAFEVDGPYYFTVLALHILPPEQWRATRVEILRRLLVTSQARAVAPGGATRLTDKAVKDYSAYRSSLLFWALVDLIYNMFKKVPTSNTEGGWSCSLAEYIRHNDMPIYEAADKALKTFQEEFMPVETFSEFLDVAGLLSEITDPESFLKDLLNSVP

binding result [2]: binds
B2: RB (retinoblastoma protein), endogenous, HeLa extract (other, human, UniProt P06400 2-928, looked up)
chain: PPKTPRKTAATAAAAAAEPPAPPPPPPPEEDPEQDSGPEDLPLVRLEFEETEEPDFTALCQKLKIPDHVRERAWLTWEKVSSVDGVLGGYIQKKKELWGICIFIAAVDLDEMSFTFTELQKNIEISVHKFFNLLKEIDTSTKVDNAMSRLLKKYDVLFALFSKLERTCELIYLTQPSSSISTEINSALVLKVSWITFLLAKGEVLQMEDDLVISFQLMLCVLDYFIKLSPPMLLKEPYKTAVIPINGSPRTPRRGQNRSARIAKQLENDTRIIEVLCKEHECNIDEVKNVYFKNFIPFMNSLGLVTSNGLPEVENLSKRYEEIYLKNKDLDARLFLDHDKTLQTDSIDSFETQRTPRKSNLDEEVNVIPPHTPVRTVMNTIQQLMMILNSASDQPSENLISYFNNCTVNPKESILKRVKDIGYIFKEKFAKAVGQGCVEIGSQRYKLGVRLYYRVMESMLKSEEERLSIQNFSKLLNDNIFHMSLLACALEVVMATYSRSTSQNLDSGTDLSFPWILNVLNLKAFDFYKVIESFIKAEGNLTREMIKHLERCEHRIMESLAWLSDSPLFDLIKQSKDREGPTDHLESACPLNLPLQNNHTAADMYLSPVRSPKKKGSTTRVNSTANAETQATSAFQTQKPLKSTSLSLFYKKVYRLAYLRLNTLCERLLSEHPELEHIIWTLFQHTLQNEYELMRDRHLDQIMMCSMYGICKVKNIDLKFKIIVTAYKDLPHAVQETFKRVLIKEEEYDSIIVFYNSVFMQRLKTNILQYASTRPPTLSPIPHIPRSPYKFPSSPLRIPGGNIYISPLKSPYKISEGLPTPTKMTPRSRILVSIGESFGTSEKFQKINQMVCNSDRVLKRSAEGSNPPKPLKKLRFDIEGSDEADGSKHLPGESKFQQKLAEMTSTRTRMQKQKMNDSMDTSNKEEK
notes: Endogenous RB, both phosphorylation forms together

binding result [3]: binds
B3: p107, endogenous, HeLa extract (other, UniProt P28749 1-1068, looked up)
chain: MFEDKPHAEGAAVVAAAGEALQALCQELNLDEGSAAEALDDFTAIRGNYSLEGEVTHWLACSLYVACRKSIIPTVGKGIMEGNCVSLTRILRSAKLSLIQFFSKMKKWMDMSNLPQEFRERIERLERNFEVSTVIFKKYEPIFLDIFQNPYEEPPKLPRSRKQRRIPCSVKDLFNFCWTLFVYTKGNFRMIGDDLVNSYHLLLCCLDLIFANAIMCPNRQDLLNPSFKGLPSDFHTADFTASEEPPCIIAVLCELHDGLLVEAKGIKEHYFKPYISKLFDRKILKGECLLDLSSFTDNSKAVNKEYEEYVLTVGDFDERIFLGADAEEEIGTPRKFTRDTPLGKLTAQANVEYNLQQHFEKKRSFAPSTPLTGRRYLREKEAVITPVASATQSVSRLQSIVAGLKNAPSDQLINIFESCVRNPVENIMKILKGIGETFCQHYTQSTDEQPGSHIDFAVNRLKLAEILYYKILETVMVQETRRLHGMDMSVLLEQDIFHRSLMACCLEIVLFAYSSPRTFPWIIEVLNLQPFYFYKVIEVVIRSEEGLSRDMVKHLNSIEEQILESLAWSHDSALWEALQVSANKVPTCEEVIFPNNFETGNGGNVQGHLPLMPMSPLMHPRVKEVRTDSGSLRRDMQPLSPISVHERYSSPTAGSAKRRLFGEDPPKEMLMDKIITEGTKLKIAPSSSITAENVSILPGQTLLTMATAPVTGTTGHKVTIPLHGVANDAGEITLIPLSMNTNQESKVKSPVSLTAHSLIGASPKQTNLTKAQEVHSTGINRPKRTGSLALFYRKVYHLASVRLRDLCLKLDVSNELRRKIWTCFEFTLVHCPDLMKDRHLDQLLLCAFYIMAKVTKEERTFQEIMKSYRNQPQANSHVYRSVLLKSIPREVVAYNKNINDDFEMIDCDLEDATKTPDCSSGPVKEERGDLIKFYNTIYVGRVKSFALKYDLANQDHMMDAPPLSPFPHIKQQPGSPRRISQQHSIYISPHKNGSGLTPRSALLYKFNGSPSKSLKDINNMIRQGEQRTKKRVIAIDSDAESPAKRVCQENDDVLLKRLQDVVSERANH

The next lines start with the binder.

B1: FLAG-epitope-tagged RB (tag at the N-terminus) (other, UniProt P06400 1-928, looked up, not shown: small tags and cut ends)
chain: MPPKTPRKTAATAAAAAAEPPAPPPPPPPEEDPEQDSGPEDLPLVRLEFEETEEPDFTALCQKLKIPDHVRERAWLTWEKVSSVDGVLGGYIQKKKELWGICIFIAAVDLDEMSFTFTELQKNIEISVHKFFNLLKEIDTSTKVDNAMSRLLKKYDVLFALFSKLERTCELIYLTQPSSSISTEINSALVLKVSWITFLLAKGEVLQMEDDLVISFQLMLCVLDYFIKLSPPMLLKEPYKTAVIPINGSPRTPRRGQNRSARIAKQLENDTRIIEVLCKEHECNIDEVKNVYFKNFIPFMNSLGLVTSNGLPEVENLSKRYEEIYLKNKDLDARLFLDHDKTLQTDSIDSFETQRTPRKSNLDEEVNVIPPHTPVRTVMNTIQQLMMILNSASDQPSENLISYFNNCTVNPKESILKRVKDIGYIFKEKFAKAVGQGCVEIGSQRYKLGVRLYYRVMESMLKSEEERLSIQNFSKLLNDNIFHMSLLACALEVVMATYSRSTSQNLDSGTDLSFPWILNVLNLKAFDFYKVIESFIKAEGNLTREMIKHLERCEHRIMESLAWLSDSPLFDLIKQSKDREGPTDHLESACPLNLPLQNNHTAADMYLSPVRSPKKKGSTTRVNSTANAETQATSAFQTQKPLKSTSLSLFYKKVYRLAYLRLNTLCERLLSEHPELEHIIWTLFQHTLQNEYELMRDRHLDQIMMCSMYGICKVKNIDLKFKIIVTAYKDLPHAVQETFKRVLIKEEEYDSIIVFYNSVFMQRLKTNILQYASTRPPTLSPIPHIPRSPYKFPSSPLRIPGGNIYISPLKSPYKISEGLPTPTKMTPRSRILVSIGESFGTSEKFQKINQMVCNSDRVLKRSAEGSNPPKPLKKLRFDIEGSDEADGSKHLPGESKFQQKLAEMTSTRTRMQKQKMNDSMDTSNKEEK
notes: also called f:RB; f: RB
binding result [1]: binds

B4: GST-RB (379-928) (other, UniProt P06400 379-928, looked up)
chain: MNTIQQLMMILNSASDQPSENLISYFNNCTVNPKESILKRVKDIGYIFKEKFAKAVGQGCVEIGSQRYKLGVRLYYRVMESMLKSEEERLSIQNFSKLLNDNIFHMSLLACALEVVMATYSRSTSQNLDSGTDLSFPWILNVLNLKAFDFYKVIESFIKAEGNLTREMIKHLERCEHRIMESLAWLSDSPLFDLIKQSKDREGPTDHLESACPLNLPLQNNHTAADMYLSPVRSPKKKGSTTRVNSTANAETQATSAFQTQKPLKSTSLSLFYKKVYRLAYLRLNTLCERLLSEHPELEHIIWTLFQHTLQNEYELMRDRHLDQIMMCSMYGICKVKNIDLKFKIIVTAYKDLPHAVQETFKRVLIKEEEYDSIIVFYNSVFMQRLKTNILQYASTRPPTLSPIPHIPRSPYKFPSSPLRIPGGNIYISPLKSPYKISEGLPTPTKMTPRSRILVSIGESFGTSEKFQKINQMVCNSDRVLKRSAEGSNPPKPLKKLRFDIEGSDEADGSKHLPGESKFQQKLAEMTSTRTRMQKQKMNDSMDTSNKEEK
notes: Expressed in E. coli; also called large pocket domain of RB as GST fusion; not shown: glutathione S-transferase (GST) fusion partner of vector pGEX6P-1
binding result [4]: binds
